Measurements reported in patent publication US20260009008A1, “SYNTHETIC GENOME EDITING SYSTEM” (Pencil Biosciences Limited, priority 2021, published 2026).
Entries after “also recorded” stand apart in the source; their conditions may differ.

What was measured:
Thioflavin T assay = assay type: physicochemical; details: 200 μM peptide, 25 μM ThT, 37° C., excitation 450 nm
Description: Appropriate self-assembling peptides (alternatively referred to as folding peptides as in a single folding structure) will form a structure which can be identified by thioflavin T (Tht) binding. Fluorescence emission assay of Thioflavin T binding is commonly employed to detect amyloid fibrils. Upon binding to amyloid fibrils, ThT gives a strong fluorescence signal at approximately 482-485 nm when excited at 450 nm (Xue et al. (2017) Royal. Soc. Open Sci. 4:160696, 'Thioflavin T as an amyloid dye: fibril quantification, optimal concentration and effect on aggregation).
Such peptides were tested for ability to self-assemble to provide a β-sheet supramolecular structure and nickase activity. Ability to provide a β-sheet supramolecular structure was determined by thioflavin T fluorescence binding (Xue et al. (2017) Royal Soc. Open Sci. 4:160696). Nickase activity was investigated by means of a molecular beacon assay combined with a gel plasmid cleavage assay.
Thioflavin T (ThT) was mixed with the peptides in reaction buffer solution. Peptides were diluted to 200 μM (from a stock solution of 4.4 mM in DMSO) using a reaction buffer solution (the same buffer as used for the initial molecular beacon assays as set out below). […] The emission signal at 485 nm was measured every 5 minutes using an excitation wavelength of 450 nm. […]

plasmid DNA (pBR322) = assay: Gel plasmid cleavage assay; assay type: biochemical
Description: For this reason a further gel plasmid cleavage assay was employed to look for cleavage. Such a gel cleavage assay can differentiate between plasmid that is intact (no cleavage), nicked (ssDNA cleavage) and linearised (dsDNA cleavage) as the three plasmid species will migrate differently on an agarose gel. Intact plasmids have a supercoiled structure and therefore can migrate easily through an agarose gel whereas a ssDNA cleavage on the plasmid will relax this supercoiled structure. This produces a relaxed circle/nicked structure that migrates more slowly through the pores. The dsDNA cleavage of a plasmid produces a linearised plasmid. The linear structure migrates faster than a relaxed circular structure although not as fast as the supercoiled structure.
To optimize the assay, plasmid DNA (pBR322) was mixed with increasing concentrations of the peptide bL or bN, in the presence of Zn^2 + ions. […] The percentage of nicked species increases with greater peptide concentration for both bL and bN. […] An increasing proportion of the plasmid DNA is also observed in the wells of the gel. This DNA can be binding to the peptide causing a complex that is unable to migrate into the gel.

[1] = Observation of peptide aggregation / precipitation; assay type: physicochemical

Substance: LELDLHL [bD]
- Thioflavin T emission signal at 485 nm (amyloid-like fibrils) (Thioflavin T assay): high emission signal was measured instantly; also recorded: higher propensity to produce a highly stable amyloid beta sheet structure; also recorded: indicative of production of amyloid β-sheet structure
- cleavage of plasmid (plasmid DNA (pBR322)): some cleavage
- percentage of cleavage versus peptide concentration (plasmid DNA (pBR322)): increase with peptide concentration
- aggregation / precipitation of peptide [1]: least propensity to aggregate and to precipitate
